In patent publication US20240352438A1, “MEANS AND METHODS FOR DETOXIFYING OCHRATOXIN A” (DSM Austria GmbH, priority 2021, published 2024):

B1: 62 (protein)
chain: MTTRTRILTAFLSLLAANACAADAAPAAPHTVVLRAARMFDGASGKLVDHPQLTIVGNKIVRIAQGDKAEVPAGAEVVDLGDATLLPGFIDAHVHLSGQSSDNWYGDFFDNMMRFPAEQALYGAYYARITLEAGFTSVRDVGSTDWVALGLRNAIDAGKVPGPRMLVSNYAVGSTGGHADQDPIPPHKLPLAGPLQGVCNGPEECRAAVRYQIKYGANVIKFMPSGGVLSLSDPPDAPELSQDEMNAVIGESHAWGRKVAAHAHGDKAAKMAVAAGVDSIEHGSFIEDDTLRAMKAKNVYLVPTISAIAHVEEKIGTFPPVIAEKGRAAAAHLRQTFRHAVQIGVPIALGTDAGVGAHGSNAREFRYMVENGLTPAQALLAGTANAARLLGTFDRVGTLEAGKLADVVAVPGNPIADITVTERPLFVMKDGVVVRRDAVR
modifications: exemplary polypeptide
B2: 70 (protein)
chain: MTTRTRILTAFLSLLAANACAADAAPAAPHTVVLRAARMFDGASGKLVDHPQLTIVGNKIVRIAQGDKAEVPAGAEVVDLGDATLLPGFIDAHVHLSGQSSDNWYGDFFDNMMRFPAEQALYGAYYARITLEAGFTSVRDVGSTDWVALGLRNAIDAGKVPGPRMLVSNYAVGSTGGHADLDPIPPHKLPLAGPLQGVCNGPEECRAAVRYQIKYGANVIKFMPSGGVLSLSDPVDAPELSQDEMNAVIGESHAWGRKVAAHAHGDKAAKMAVAAGVDSIEHGSFIEDDTLRAMKAKNVYLVPTISAIAHVEEKIGTFPPVIAEKGRAAAAHLRQTFRHAVQIGVPIALGTDAGVGAHGSNAREFRYMVENGLTPAQALLAGTANAARLLGTFDRVGTLEAGKLADVVAVPGNPIADITVTERPLFVMKDGVVVRRDAVR
modifications: exemplary polypeptide
B3: 68 (protein)
chain: MTTRTRILTAFLSLLAANACAADAAPAAPHTVVLRAARMFDGASGKLVDHPQLTIVGNKIVRIAQGDKAEVPAGAEVVDLGDATLLPGFIDAHVHLSGQSSDNWYGDFFDNMMRFPAEQALYGAYYARITLEAGFTSVRDVGSTDWVALGLRNAIDAGKVPGPRMLVSNYAVGSTGGHADQDPIPPHKLPLAGPLQGVCNGPEECRAAVRYQIKYGANVIKFMPSGGVLSLSDPVDAPELSQDEMNAVIGESHAWGRKVAAHAHGDKAAKMAVAAGVDSIEHGSFIEDDTLRAMKAKNVYLVPTISAIAHVEEKIGTFPPVIAEKGRAAAAHLRQTFRHAVQIGVPIALGTDAGVGPHGSNAREFRYMVENGLTPAQALLAGTANAARLLGTFDRVGTLEAGKLADVVAVPGNPIADITVTERPLFVMKDGVVVRRDAVR
modifications: exemplary polypeptide
B4: 71 (protein)
chain: MTTRTRILTAFLSLLAANACAADAAPAAPHTVVLRAARMFDGASGKLVDHPQLTIVGNKIVRIAQGDKAEVPAGAEVVDLGDATLLPGFIDAHVHLSGQSSDNWYGDFFDNMMRFPAEQALYGAYYARITLEAGFTSVRDVGSTDWVALGLRNAIDAGKVPGPRMLVSNYAVGSTGGHADQDPIPPHKLPLAGPLQGVCNGPEECRAAVRYQIKYGANVIKFMPSGGVLSLSDPVDAPELSQDEMNAVIGESHAWGRKVAAHAQGDKAAKMAVAAGVDSIEHGSFIEDDTLRAMKAKNVYLVPTISAIAHVEEKIGTFPPVIAEKGRAAAAHLRQTFRHAVQIGVPIALGTDAGVGAHGSNAREFRYMVENGLTPAQALLAGTANAARLLGTFDRVGTLEAGKLADVVAVPGNPIADITVTERPLFVMKDGVVVRRDAVR
modifications: exemplary polypeptide
B5: 69 (protein)
chain: MTTRTRILTAFLSLLAANACAADAAPAAPHTVVLRAARMFDGASGKLVDHPQLTIVGNKIVRIAQGDKAEVPAGAEVVDLGDATLLPGFIDAHVHLSGQSSDNWYGDFFDNMMRFPAEQALYGAYYARITLEAGFTSVRDVGSTDWVALGLRNAIDAGKVPGPRMLVSNYAVGSTGGHADMDPIPPHKLPLAGPLQGVCNGPEECRAAVRYQIKYGANVIKFMPSGGVLSLSDPVDAPELSQDEMNAVIGESHAWGRKVAAHAHGDKAAKMAVAAGVDSIEHGSFIEDDTLRAMKAKNVYLVPTISAIAHVEEKIGTFPPVIAEKGRAAAAHLRQTFRHAVQIGVPIALGTDAGVGAHGSNAREFRYMVENGLTPAQALLAGTANAARLLGTFDRVGTLEAGKLADVVAVPGNPIADITVTERPLFVMKDGVVVRRDAVR
modifications: exemplary polypeptide
B6: 63 (protein)
chain: MTTRTRILTAFLSLLAANACAADAAPAAPHTVVLRAARMFDGASGKLVDHPQLTIVGNKIVRIAQGDKAEVPAGAEVVDLGDATLLPGFIDAHVHLSGQSSDNWYGDFFDNMMRFPAEQALYGAYYARITLEAGFTSVRDVGSTDWVALGLRNAIDAGKVPGPRMLVSNYAVGSTGGHADQDPIPPHKLPLAGPLQGVCNGPEECRAAVRYQIKYGANVIKFMPSGGVLSLSDPVDAPQLSQDEMNAVIGESHAWGRKVAAHAHGDKAAKMAVAAGVDSIEHGSFIEDDTLRAMKAKNVYLVPTISAIAHVEEKIGTFPPVIAEKGRAAAAHLRQTFRHAVQIGVPIALGTDAGVGAHGSNAREFRYMVENGLTPAQALLAGTANAARLLGTFDRVGTLEAGKLADVVAVPGNPIADITVTERPLFVMKDGVVVRRDAVR
modifications: exemplary polypeptide
B7: 66 (protein)
chain: MTTRTRILTAFLSLLAANACAADAAPAAPHTVVLRAARMFDGASGKLVDHPQLTIVGNKIVRIAQGDKAEVPAGAEVVDLGDATLLPGFIDAHVHLSGQSSDNWYGDFFDNMMRFPAEQALYGAYYARITLEAGFTSVRDVGSTDWVALGLRNAIDAGKVPGPRMLVSNYAVGSTGGHADQDPIPPHKLPLAGPLQGVCNGPEECRAAVRYQIKYGANVIKFMPSGGVLSLSDPVDAPELSQDEMNAVIGESHAWGRKVAAHAHGDKAAKMAVAAGVDSIEHGSFIEDDTLRAMKAKNVYLVPTISAIAHAEEKIGTFPPVIAEKGRAAAAHLRQTFRHAVQIGVPIALGTDAGVGAHGSNAREFRYMVENGLTPAQALLAGTANAARLLGTFDRVGTLEAGKLADVVAVPGNPIADITVTERPLFVMKDGVVVRRDAVR
modifications: exemplary polypeptide
B8: 64 (protein)
chain: MTTRTRILTAFLSLLAANACAADAAPAAPHTVVLRAARMFDGASGKLVDHPQLTIVGNKIVRIAQGDKAEVPAGAEVVDLGDATLLPGFIDAHVHLSGQSSDNWYGDFFDNMMRFPAEQALYGAYYARITLEAGFTSVRDVGETDWVALGLRNAIDAGKVPGPRMLVSNYAVGSTGGHADQDPIPPHKLPLAGPLQGVCNGPEECRAAVRYQIKYGANVIKFMPSGGVLSLSDPVDAPELSQDEMNAVIGESHAWGRKVAAHAHGDKAAKMAVAAGVDSIEHGSFIEDDTLRAMKAKNVYLVPTISAIAHVEEKIGTFPPVIAEKGRAAAAHLRQTFRHAVQIGVPIALGTDAGVGAHGSNAREFRYMVENGLTPAQALLAGTANAARLLGTFDRVGTLEAGKLADVVAVPGNPIADITVTERPLFVMKDGVVVRRDAVR
modifications: exemplary polypeptide
B9: 67 (protein)
chain: MTTRTRILTAFLSLLAANACAADAAPAAPHTVVLRAARMFDGASGKLVDHPQLTIVGNKIVRIAQGDKAEVPAGAEVVDLGDATLLPGFIDAHVHLSGQSSDNWYGDFFDNMMRFPAEQALYGAYYARITLEAGFTSVRDVGSTDWVALGLRNAIDAGKVPGPRMLVSNYAVGSTGGHADQDPIPPHKLPLAGPLQGVCNGPEECRAAVRYQIKYGANVIKFMPSGGVLSLSDPVDAPELSQDEMNAVIGESHAWGRKVAAHAHGDKAAKMAVAAGVDSIEHGSFIEDDTLRAMKAKNVYLVPTISAIAHVEEKIGTFPPVIAEKGRAAAAHLRQTFRHAVQIGVPIALGTDAGAGAHGSNAREFRYMVENGLTPAQALLAGTANAARLLGTFDRVGTLEAGKLADVVAVPGNPIADITVTERPLFVMKDGVVVRRDAVR
modifications: exemplary polypeptide

How the values were obtained:
[1] = Thermostability assay: residual OTA detoxification activity after 10 min incubation at 45-99° C. (T50); assay type: physicochemical; details: 0.1 mg/mL protein in 20 mM Tris-HCl pH 7.5, residual OTA detoxification activity relative to 4° C. reference aliquot
Procedure, shortened: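 Purified enzyme at 0.1 mg/mL in 20 mM Tris-HCl pH 7.5 was heated 10 min at 45–99 °C, then held at 4 °C. Residual OTA detoxification activity was expressed relative to an aliquot kept at 4 °C throughout; T50 is the temperature range giving 50% activity loss.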

[2] = OTA detoxification activity assay (specific activity, fluorescence reduction ex/em 390/450 nm); assay type: biochemical; details: SEQ ID NO: 1 = 100%
Procedure, shortened: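 Recombinant enzyme preparation with 200 ng/mL OTA in 100 mM sodium phosphate, at pH 6.0 and pH 7.5, 37° C. Degradation followed as the fall in fluorescence at ex/em 390/450 nm. Specific activity taken from the initial linear slope; one unit degrades 1 μmol OTA per min at a starting OTA of […].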

| Molecule | T50 (temperature at which 50% of the initial activity was maintained) [1] | Specific OTA detoxification activities in % compared to the enzyme of SEQ ID NO: 1, pH 6.0 [2] [%] | Specific OTA detoxification activities in % compared to the enzyme of SEQ ID NO: 1, pH 7.5 [2] [%] |
| --- | --- | --- | --- |
| B1 | 63-64 °C | 35 | 26 |
| B2 | <63.2 °C | 80 | 77 |
| B3 | 70.7-72.6 °C | 70 | 67 |
| B4 | 70.7-72.6 °C | 32 | 17 |
| B5 | <63.2 °C | 102 | 75 |
| B6 | 72-74 °C | 43 | 112 |
| B7 | 65.3-66.9 °C | 15 | 15 |
| B8 | 63-64 °C | 36 | 146 |
| B9 | <63.2 °C | 51 | 28 |
